T1: Human MCSP D3 (human, UniProt Q6UVK1 1582-2224)
T1 construct: Soluble analyte in SPR; The selection antigen was hu-MCSP(D3 domain)-avi-his; also called hu-MCSP(D3 domain)-avi-his
T1 sequence: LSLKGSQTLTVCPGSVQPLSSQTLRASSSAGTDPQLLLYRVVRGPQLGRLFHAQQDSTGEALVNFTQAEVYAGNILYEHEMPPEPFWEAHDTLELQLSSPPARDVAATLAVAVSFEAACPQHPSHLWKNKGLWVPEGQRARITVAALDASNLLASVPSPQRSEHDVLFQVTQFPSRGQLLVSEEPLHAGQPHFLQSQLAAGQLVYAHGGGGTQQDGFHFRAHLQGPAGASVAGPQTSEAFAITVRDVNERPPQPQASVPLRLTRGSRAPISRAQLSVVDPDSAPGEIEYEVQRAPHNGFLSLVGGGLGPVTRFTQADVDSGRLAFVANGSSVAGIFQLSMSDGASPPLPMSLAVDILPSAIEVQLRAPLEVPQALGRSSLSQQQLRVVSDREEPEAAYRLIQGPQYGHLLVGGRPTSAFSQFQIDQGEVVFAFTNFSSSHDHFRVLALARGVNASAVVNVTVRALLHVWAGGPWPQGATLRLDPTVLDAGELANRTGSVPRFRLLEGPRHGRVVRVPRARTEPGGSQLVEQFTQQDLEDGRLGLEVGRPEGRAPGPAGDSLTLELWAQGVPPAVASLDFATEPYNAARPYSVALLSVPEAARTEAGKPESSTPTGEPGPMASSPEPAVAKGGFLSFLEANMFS

T2: Cynomolgus MCSP D3 (cynomolgus, UniProt Q6UVK1 1582-2224 (human entry), limits assumed)
T2 construct: Soluble analyte in SPR
T2 chain: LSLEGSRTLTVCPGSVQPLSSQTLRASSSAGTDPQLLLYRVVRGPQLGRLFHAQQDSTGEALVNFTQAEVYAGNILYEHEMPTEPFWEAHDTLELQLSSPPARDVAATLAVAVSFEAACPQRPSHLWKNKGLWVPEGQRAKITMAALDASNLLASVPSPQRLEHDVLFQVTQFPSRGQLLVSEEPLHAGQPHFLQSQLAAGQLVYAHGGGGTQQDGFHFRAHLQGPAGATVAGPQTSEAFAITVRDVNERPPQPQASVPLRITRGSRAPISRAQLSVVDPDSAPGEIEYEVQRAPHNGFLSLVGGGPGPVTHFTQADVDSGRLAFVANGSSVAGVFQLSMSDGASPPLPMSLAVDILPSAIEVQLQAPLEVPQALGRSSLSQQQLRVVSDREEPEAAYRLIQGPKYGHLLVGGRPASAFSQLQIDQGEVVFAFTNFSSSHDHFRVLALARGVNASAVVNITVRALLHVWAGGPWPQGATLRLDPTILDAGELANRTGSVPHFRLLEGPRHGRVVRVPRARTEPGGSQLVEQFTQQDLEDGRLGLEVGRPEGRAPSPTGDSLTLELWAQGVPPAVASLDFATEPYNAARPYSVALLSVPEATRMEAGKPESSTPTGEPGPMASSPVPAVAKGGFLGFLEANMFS

B1: M4-3 ML2 (parental) (antibody, human IgG1, kappa, V domains shown)
VH: QVQLQESGPGLVKPSQTLSLTCTVSGGSITSGYYWNWIRQHPGKGLEWIGYITYDGSNNYNPSLKSRVTISRDTSKNQFSLKLSSVTAADTAVYYCADFDYWGQGTLVTVSS
VL: DIQMTQSPSSLSASVGDRVTITCRASQGIRNYLNWYQQKPGKAPKLLIYYTSSLHSGVPSRFSGSGSGTDFTLTISSLQPEDFATYYCQQYSKLPWTFGQGTKVEIKR
notes: Non-matured parental humanized IgG; also called humanized antibody M4-3 ML2
B2: M4-3 (C1) ML2 (antibody, human IgG1, V domains shown)
VH: B1 VH with Y54F
VL: DIQMTQSPSSLSASVGDRVTITCRASQGIRNYLNWYQQKPGKAPKLLIYYTSSLHSGVPSRFSGSGSGTDFTLTISSLQPEDFATYYCQQYSKLPWTFGQGTKVEIK
B3: M4-3 ML2 (E10/G3) (antibody, human IgG1, V domains shown)
VH: B1 VH
VL: B2 VL with Q27Y, N31G, Y87H, K93A
B4: M4-3 (C1) ML2 (G3) (antibody, human IgG1, kappa, V domains shown)
VH: B1 VH with Y54F
VL: B1 VL with F71Y, K93A
B5: M4-3 (D6) ML2 (antibody, human IgG1, V domains shown)
VH: B1 VH with Y54F, S57K
VL: B2 VL
B6: M4-3 (A7) ML2 (G3) (antibody, human IgG1, V domains shown)
VH: B1 VH with S31D, Y54F, S57R
VL: B2 VL with F71Y, K93A
B7: M4-3 (B8) ML2 (antibody, human IgG1, V domains shown)
VH: B1 VH with Y54F, S57R
VL: B2 VL
B8: M4-3 ML2 (C5/G3) (antibody, human IgG1, V domains shown)
VH: B1 VH
VL: B2 VL with Q27R, N31E, S52G, K93A
B9: M4-3 (C1) ML2 (C5) (antibody, human IgG1, V domains shown)
VH: B1 VH with Y54F
VL: B2 VL with Q27R, N31E, S52G, K93E
B10: M4-3 (B7) ML2 (antibody, human IgG1, V domains shown)
VH: B1 VH with Y54F, S57I
VL: B2 VL
B11: M4-3 (A7) ML2 (antibody, human IgG1, V domains shown)
VH: B1 VH with S31D, Y54F, S57R
VL: B2 VL
B12: M4-3 (A7) ML2 (E10) (antibody, human IgG1, V domains shown)
VH: B1 VH with S31D, Y54F, S57R
VL: B2 VL with Q27Y, N31G, Y87H
B13: M4-3 (C1) ML2 (E10) (antibody, human IgG1, V domains shown)
VH: B1 VH with Y54F
VL: B2 VL with Q27Y, N31G, Y87H
B14: M4-3 (A7) ML2 (C5) (antibody, human IgG1, V domains shown)
VH: B1 VH with S31D, Y54F, S57R
VL: B2 VL with Q27R, N31E, S52G, K93E
B15: M4-3 ML2 (E10) (antibody, human IgG1, V domains shown)
VH: B1 VH
VL: B2 VL with Q27Y, N31G, Y87H
B16: M4-3 ML2 (C5) (antibody, human IgG1, V domains shown)
VH: B1 VH
VL: B2 VL with Q27R, N31E, S52G, K93E

Residue numbers refer to the chain shown, from its start.

A word on the Kd: it is the concentration at which binding is half-saturated. Read a high Kd as a looser complex.

For one assay, the target named is T1, Human MCSP D3. Description: SPR Biacore T200, 25 C, IgG captured on anti-human Fab, MCSP D3 as analyte, 1:1 Langmuir fit. The method, then: (§1) IgGs were captured on a CM5 sensorchip surface with immobilized anti human Fab. Capture IgG was coupled to the sensorchip surface by direct immobilization of around 10,000 resonance units (RU) at pH 5.0 using the standard amine coupling kit (Biacore, Freiburg/Germany). IgGs are captured for 60 s at 30 nM with 10 μl/min. Human and cynomolgus MCSP D3 were passed at a concentration of 0.49-1000 nM with a flowrate of 30 μl/min through the flow cells over 180 s. The dissociation is monitored for 210 s. Bulk refractive index differences were corrected for by subtracting the response obtained on reference flow cell. Here, the antigens were flown over a surface with immobilized anti-human Fab antibody but on which HBS-EP has been injected rather than anti MCSP IgGs.
The molecule B1 returned a Kd of 24.2 nM. In other words, the double-digit nanomolar range.
On to B2, for which the Kd was 7.2 nM.
In turn, B3 showed a Kd of 5.5 nM.
In turn, B4 returned a Kd of 1.6 nM.
In turn, B5 registered a Kd of 15.1 nM. This Kd is about 9.4-fold higher than that of the molecule before.
B6 returned a Kd of 0.009 nM.
Same read-out and setting: in the case of B7 it was 19.2 nM; in that of B8, 4.2 nM; in that of B9, 0.003 nM.
In turn, B10 yielded a Kd of 12.6 nM.
Same read-out and setting: in the case of B11 it was 7.1 nM; in that of B12, 3.1 nM; in that of B13, 3.9 nM.
B14 showed a Kd of 0.002 nM. This Kd lies about 2000-fold lower than the previous one.
Same read-out and setting: the same measure for B15: 21.4 nM.
The molecule B16 had a Kd of 0.8 nM.

Another assay has as its target T2, Cynomolgus MCSP D3. The assay is described as above. As for the experimental part:
as §1
B1 came in with a Kd of 82.5 nM. That is a double-digit nanomolar value.
Still for that read-out and setting: the same measure for B2: 9.8 nM; for B3: 12.2 nM.
The same measure, in the same setting: the same measure for B4: 1.3 nM; for B5: 24.6 nM.
B6 displayed a Kd of 1.5 nM.
Take B7: the Kd worked out at 28.8 nM.
As for B8, binding was put at a Kd of 12.8 nM.
B9 registered a Kd of 0.12 nM.
The same measure, in the same setting: the same measure for B10: 9.9 nM; for B11: 16.3 nM.
The same measure, in the same setting: in the case of B12 it was 8.5 nM; in that of B13, 4.5 nM.
B14 displayed a Kd of 1.1 nM.
On the same count and under the same terms, in the case of B15 it was 62.8 nM.
The same measure, in the same setting: in the case of B16 it was 5.7 nM.
